The values below come from patent US20170106084A1.

One may read the EC50 as the midpoint of the concentration-response curve.

This assay addresses T1, human tau(pS422) fragment SEQ ID NO: 03 (human).
T1 sequence (peptide, phosphoserine at 422 (tau numbering); biotinylated): SIDMVDXPQLATLAD
As to the kind of experiment: ELISA, coated antigen. (An ELISA detects its analyte on a solid surface through an enzyme-linked reagent.)

B1: VH00/VL00 (antibody, V domains shown)
VH: QSVEESGGRLVTPGTPLTLTCTVSGFSLSSNAINWVRQAPGKGLEWIGYIAVSGNTYYASWAKGRFTISKASTTVDLKMTSPTAEDTGTYFCGKSNIWGPGTLVTVSL
VL: AQVLTQTTSPVSAAVGSTVTISCQSSQSVRTNKLAWFQQKPGQPPKRLIYSASTLDFGVPSRFSASGSGTQFTLTISDVQCDDAATYYCLGYFDCSIADCVAFGGGTEVVVK
Regarding B1, the EC50 amounted to 6.3 ng/mL.

B2: VH32/VL22 (antibody, V domains shown)
VH: EVQVLESGGGLVQPGGSLRLSCAVSGFSLSSNAINWVRQAPGKGLEWVGYIAVSGNTYYASWAKGRFTISRDNSKNTVYLQMNSLRAEDTAVYYCGKSNIWGQGTLVTVSS
VL: AQVMTQSPSSLSASVGDRVTITCRSSQSVRTNRLAWFQQKPGQPPKRLIYSASTLDYGVPSRFSGSGSGTEFTLTISSLQPEDFATYYCLGYFDSSADIVAFGGGTKVEIK
For B2, the EC50 was 5.6 ng/mL.
